The values below come from publication PMC2954053.

One assay has as its target BTF (UniProt Q9NYF8). Nature of the assay: anti-Flag co-IP, BTF blot. Conditions: reference: wild type Flag-PSF; sites T687.
A further assay deals with TRAP150 (UniProt Q9Y2W1). Nature of the assay: anti-Flag co-IP, TRAP150 blot. Conditions: reference: wild type Flag-PSF; sites T687.

Consider PSF (from UniProt P23246) T687A, for which the “binding against the reference” value with BTF and with TRAP150 was “weaker” each time.
